Experimental data as given in the DeepSol protein solubility set.

Test: soluble on expression in E. coli; label from the status in PepcDB or PDB records

Sequence | soluble on expression in E. coli
MRMNIRVALPQAQVHWCRGWLQAAHADALMQALLDQVQWEVHRIRMFGRVVDSPRLSSWIGDADASYRYSGTQFAPQPWLEALQPVRTRLQDETGSPFNSVLVNRYRSGADAMGWHSDDEPELGAQPVIASLSLGAARRFAFKHRHDAALKQTLELGHGDLLLMGGDTQRHYKHALPRTVKPVGERINLTFRQIAVRVSQRLEHHHHHH | not soluble
GPGSMLPQLLTENLCSLVEAEDRYAFSILWEFDENLNVVRDWFGKTIIRSRGALYYGDAQRMIDNPADTSDIAVSLRELMRLSKHFKAQREEDGALFLASQEFKFKVDNEHVNPTDMQVYQTFEANSMIEEWMLYANAAVATKVYESYPQWTLLRRHEPPAEGAFDTLNDALYSKLRVRLDDTTSLTLNKSLDKCEDPQDPYFNKLIRILTTRCLRQAQYFSSGG | not soluble
MNREKLMKMANTVRTGGKGTVRRKKKAVHKTTTTDDKRLQSTLKRVGVNSIPAIEEVNIFKDDVVIQFINPKVQASIAANTWVVSGTPQTKKLQDILPQIISQLGPDNLDNLKKLAEQFQKQAPGAGDVPATIQEEDDDDDVPDLVVGETFETPATEEAPKAAAS | soluble
MSLTKVSAFFSTCKAGVFLGWDRNIDTSIAYTDGYSNRLDIISYDLCNWNGNNDSSSISWDSASTIRDLQKPNIPLIKQYKGPYAHLIKNVIISAHMPCPTGGTSNGSISPQDFATLANTKIQDINSSSPWFLQNYKAIVSKVGDGLEYYGHVGTVYFRPFHEVNGNWFWWGDKDVSQYKQLWINLHDYLVSKNSGCRGLTWLKFCYAPNSGKNAALYYPGDDYVDMVGMDAYSDNPSTDTYVKRAYAELTGGTYNGVTYPGIDKPFGFPELGPNVGGDYVDNKNRLIKKFDYKRWSDAIKLNYPKASYFIIWNGGYEPRNNDNGTSLFNMSYEGHHHHHH | soluble
MMRIGIIARFDVAEAVEIAERVASFLLNRGVEITVDLKLTEELPQLREYGEDIRNMDADMILTIGGDGTILRTRSLIEDKEIPILGINMGTVGFLTEVDPENVFSALEAVLRGEYAVEKRTLLSVYHNDELPSALNEVVLMTRRPAKMLHIEISVDDEVVEELRADGIIIATPSGSTAYSMSAGGPIVDPRVEAFLIVPICPFKLSARPLVVSNKSVIRVKLLRKGKKAIAVIDGQYEEEINHMDEVIFRKSERKAHFVRLSKDFYRKVREKLIEGGIDSIKG | soluble
MGSDKIHHHHHHQPAAGISDDMVKIGMLLDMSGLYADVTGRGSATAAQMAIDDFGGKVLGKKIELVVVDHQNKADIAANKAREWFDTGHVDAILDVAASAPALAVLDVAKQKNHIVVFSGPGSERITNDLCTPVSVHYAYDTYALANTTARAMVQRGGKTWFFLTADYAFGHTLQDSATAVINEAGGKVLGAARHPIGASDFASYLLQAQASKAQVVGLANAGGDTVNAIKAASEFGLTRNGAQRMAGLLLYINDIHAIGLKTASGLVLTEAFYWDMNDATRAWSRRYFEKVKKMPNMSQAGAYSSVMHYLKAVQAAGTDETAAVMKKMKSMPINDFFAKNGRIREDGRMIHDMYLFEVKSPAESKYPWDYYKVLATVPGDQAFMPASKSQCPLLKR | not soluble
MGLEDDFLLEDADDEKTVEFIKNYLPQELKEKFEDDELYYFLDLIDEYYSESGILDAQPDNDGYVNIDLEEVVAYIVKEAKKDEMGEYDPEEILFVVQGEMEYGNSLGQVD | not soluble
GMKCNDKLAPFEVFDHVVNKKLSFRHVTMDDVDMLHSWMHEEHVIPYWKLNIPLVDYKKHLQTFLNDDHQTLMVGAINGVPMSYWESYWVKEDIIANYYPFEEHDQGIHLLIGPQEYLGQGLIYPLLLAIMQQKFQEPDTNTIVAEPDRRNKKMIHVFKKCGFQPVKEVELPDKIGLLMKCEQNVFEKRWSDWKMNKF | soluble
MSAAAAPDTARSGRWRVDTDPERVERDLTCLVLTLVELVRQLVERQCVRRMDQGDLSDEQIETLGLTLMRLEEAMTELCERFDLSPSDLNLDLGPLGTLLPVD | not soluble
MDAFKRNLEKLAELAIRVGLNLEKGQEVIATAPIEAVDFVRLLAEKAYREGASLFTVIYGDQELARKRLALAPEEGLDKAPAWLYEGMARAFREGAARLAVSGSDPKALEGLPPEKVGRAQKANARAYKPALEAITEFVTNWTIVPFAHPGWARAVFPGLPEEEAVRRLWEAIFQATRADQEDPIAAWEAHNRALHEKVAYLNARRFHALHFKGPGTDLVVGLAEGHLWQGGATATKGGRLCNPNLPTEEVFTAPHRERVEGVVRASRPLALGGTLVEGIFARFERGFAVEVRAEKGEEVLRRLLDTDEGARRLGEVALVPADNPIAKTGLVFFDTLFDENAASHIAFGQAYQENLEGRPSGEAFRKRGGNESLVHVDWMIGSEEMDVDGLYEDGTRTPLMRRGRWVV | soluble
MGHNMMTTQKWYEHITNVIIGNTANFNSGCPESIDYVDEKKGVPLAAMKYILMYTEAAASHAYLFEHDLKKFKQYAYVAGKLGILQSVDDEDPEPFFFPCDMLNIQDPMFLMLMSDSPQLREFLVRNIDNIANDTEAFVNRYDLNRHMIYNTLLMVEGKQLDRLKQRSEKVLAHPTPSKWLQKRLYDYRFFLAFAEQDAEAMKAALEPLFDKKTARMAAKETLSYFDFYLQPQIVTYAKIASMHGFDLGIDHEIAPRDLTVYDPLPADEYQDIFDFMKQYDLSYPYEYLQDWIDYYTFKTDKLVFGNAKRE | not soluble
MSLEQKWKWWEEERYPEGIKWKFLEHKGPVFAPPYEPLPENVKFYYDGKVMKLSPKAEEVATFFAKMLDHEYTTKEIFRKNFFKDWRKEMTNEEKNIITNLSKCDFTQMSQYFKAQTEARKQMSKEEKLKIKEENEKLLKEYGEGHHHHHH | soluble
MLKLYLPCCRNNSTFAIRFSYASIAVDLILKIRQYMKRLHWILLLMILLIPTESISAKKKTEKSDREIWCDVMYRMAAPVLSNMSEGLLKQNMLVELSPTWDGRNQNVTYMECFGRLMAGLAPWLSLPDDETPEGLQRKQLREWALKSYANAVDPASPDYLLWRQENQTLVDAAFLAESFLRSYDALWMPLDSITKQRYIAEFTDLRRVDPSYSNWLLFSATVESFLRKAGAPSDTYRISSSLRKIEEWYVGDGWYSDGPRFAFDYYNSFVIHPMYIEALEIITEAGKREKIGNMPGCNFHEAIRRAQRFGVILERLISPEGTLPVFGRSITYRTGSLQTLALLAWRNWLPEELSNGQVRAAMTAVIQRMFGDGRNFNTAGFLTLGFNGSQPGISDYYTNNGSLYMASLAFLPLGLSADDPFWTDASQSWTSKKAWEGEEFPKDHSYHKELEHHHHHH | not soluble
MSLEAKRPEQTRVVVGMSGGVDSSVTALLLKEQGYDVIGIFMKNWDDTDENGVCTATEDYQDVVQVCNQLGIAYYAVNFEKEYWDKVFTYFLEEYKAGRTPNPDVMCNKEIKFKAFLNHALTLGADYVATGHYAQVKNVDGQYQLIRGKDPNKDQTYFLNALSQQQLSRVMFPLGHLEKKEVRAIAERAGLATAKKKDSTGICFIGKRDFKEFLSSYLPAQPGEMQTLDGEVKGTHDGLMYYTLGQRQGLGIGGSGEPWFVIGKNLEKNILYVGQGFHHPGLYSEGLRAIKVNWILRRESDEPFECTAKFRYRQPDQKVTVYPQSDGAVEVLFAEPQRAITPGQAVVFYDGDVCLGGGTIDHVLKKKEDRESAEGHHHHHH | soluble
MTGWGDHDSLYINPYENRNKLRTYSEYFPIVEVDSSFYAMQPARNYTKWAMETPKDFSFIVKAYQGMTGHMKGEIPFSTFDEMFDVYKQSILPLIEAGKLKTILFQYPPWFDCKKKNVDFLRYTKEKMEGLPCAIEFRNQTWFYPEMRDRTLQFLEQEKWIHTICDEPQAGIGSVPLVLEVTNSDMALIRFHGRNVHGWLDKGENWRAVRCLYRYNNKELEEWVERLEQLKKKTKDIYVLFNNNSGGDAADNAKQLMKMMNITYGEPKPEQLNFFE | not soluble
MSLARLEPWAEKLTSDPATCRHLIEEFGSPVNVLHSGSMPRNINELVDAGIQMGVDTRIFFARKANKGLTFVDAVKDTGHGVDVASERELSQVLNRGVPGERIILSAAIKPDRLLALAIENGVIISVDSRDELDRISALVGDRVARVAPRVAPDPAVLPPTRFGERAADWGNRLTEVIPGVDIVGLHVHLHGYAAKDRALALQECCQLVDSLRECGHSPQFIDLGGGVPMSYIESEEDWIRYQSAKSATSAGYAESFTWKDDPLSNTYPFYQTPVRGNWLKDVLSKGVAQMLIDRGLRLHLEPGRSLLDGCGVTLAEVAFVKTRSDGLPLVGLAMNRTQCRTTSDDFLIDPLHITDGDVGEEIEAYLVGAYCIEDELILRRRIRFPRGVKPGDIIGIPNTAGYFMHILESASHQIPLAKNVVWPEGQLDDIDADEGHHHHHH | soluble
MKNSVDRELPAELMTKLNYQGFESTEIGHPEIQRVAPKVHVSTGDNKVVDSVADVVKATVKDGMTISFHHHFRNGDFVFNQVMRAIIDAGIKDLTLAPSSLTGVMNDMVIEAIKAGTITNITSSGMRGSLGDFVSHGGLKNPVIFRSHGNRARAIEHGDIKIDVAFLGVPNADRLGNANGMAGKAVFGSLGYALMDAQYANQVVLLTDNIVAYPNTPASIKQTQVDYVVQVDQVGDPDKIGSGATRFTKDPKELKIAQTVNNVIVNSPYFKNGFSFQTGSGGAALAVTRYLRQAMLDNQIKASFALGGITKPTTDLLEEGLVDKVMDVQDFDKGAAASMHANPNQQEIDASWYADPDNKGAMVDQLDVAILSALEIDTHFNVNVMSGSDGVIRGAIGGHQDAATAKLTIISAPLVRGRLATIVPEVTTVVTPGDSIDVVVTEYGIAINPRRQDLVKALSHVPGVPVYMIEELQQLAEKKVGQPQPLEFTDRTVALIEYRDGTIIDTIKAVKDLEHHHHHH | not soluble
MAKSRLLLSELLDQLSFALCIVRNDYVIVKVNEYFESRVIFDGETMQGKNILELFPESADYLKRKIDTALVIESSSFSSWEQKPHLLPFKSSRPVSGEEEQMYQNLEVIPIHSEDGTIEHVCLCVYDVTIQASQQQELKRVSQKLEEEHQSQKVLIKKLEDAQGQLIQSEKMASIGQLSAGIAHEINNPVGFITSNLQTLSDYFNSLEKVLKSITQTIGQSKDTALNEACQKILKQGQVDFILEDTAELITESLEGSSRVMSIVKNLKEFSHVDRSEWSYANLENCIESTLKIINNEIKYNITLEKHYAANVPDVFCQPMQINQVLLNILVNASHAIKGEGTITITLQSAGDDFVEIHIRDTGCGIPEEIRERIFEPFFTTKPVGSGTGLGLSVSYGIINKHNGTISVTSEVGKGSEFTIRLPVNPSAEAVDNTDAKAM | not soluble
MARRISEPAREIDIIHETDVLVVGSGPGGLPAALAAARAGAEVTLVERFGCFGGNLTVVGVEGMHWYRHEQTIESNGIAREFEEKAKEMGAAVPESQSLSHEIDSEGFKLVADRMVLDEPNIRPMLHRFFVAPLMEGDTIIGIVTESKSGREAILARRVIDATGDADVVTRAGAPVYKTPAEQMMAASVMFHLAGVDKQRFMDGIKADPQTYRDWGGGGEWNIETSGKEDDMFSPFLKKPFQQAIRDGLIPPHLNTIAGTWGAVHDTGELTYMNLIHLDGCDGTDPDSLTTYEIEGRRQTMLAIEALRRYTPGCENIRLRNFGMSIGIRDTRKVDCLYNMTETDVREQGRFEDSIGIFPEFIDGYGILILPTTGRYFQMPYRNLLPRGVKNLLVAGRITGGDRISHAATRNMACCAVTGQGAGIAAALSVKSNRPLDEIDPLLIQKELERQGGRHHLEHHHHHH | not soluble
MKCIAIDDEPLALKQLTDYISRVPFLSLVKSCQDAFEAMKVLADEEIDLIFVDINMPDLNGLDFIRSLISRPMVVFTTAYSEYAVDGFKLDAVDYLLKPFEFQDLLKAADKARKQYEYRMLEQQGELGNSSQIKGDSLFVKSDYKVVRIDVKNIRYIEGMSEYVRIFIEGEDKPVITLASLQKMEERLPTYFMRVHRSYIVNLRKITEVSRLRIIFDRNTYIPVGDNYKERFAEHISKLSFS | not soluble
